Measured values from patent US20190002515A1 (published 2019).

Biological target: T1, GAGE-1 peptide on HLA-DRA*01:01 / HLA-DRB5*01:01 (human)
T1 peptide: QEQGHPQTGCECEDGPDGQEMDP
Assay: cytokine release

binding result: recognises
B1: TCR specific for GAGE-1 of SEQ ID NOs 7 and 8 (TCR, V domains shown)
Valpha: EDKVVQSPLSLVVHEGDTVTLNCSYEVTNFRSLLWYKQEKKAPTFLFMLTSSGIEKKSGRLSSILDKKELSSILNITATQTGDSAIYLCAERTQGGSEKLVFGKGTKLTVNP
Vbeta: DAGITQSPRHKVTETGTPVTLRCHQTENHRYMYWYRQDPGHGLRLIHYSYGVKDTDKGEVSDGYSVSRSKTEDFLLTLESATSSQTSVYFCATQRNTEAFFGQGTRLTVV
